Laboratory results taken from doi:10.1101/2023.07.20.549907, “Mechanism of outer kinetochore assembly on microtubules and its regulation by mitotic error correction” (bioRxiv, 2023).

B1: Ask1 subunit of the Dam1 complex (natural protein, S. cerevisiae, UniProt P35734 1-292, looked up)
chain: MDSASKEETLEKLDQEITVNLQKIDSNLSFCFHKITQDIIPHVATYSEICERIMDSTEWLGTMFQETGLVNLQANAAAPVGNAPVKSLVSNNVGIFPTSAEEASRQSQTDNGPNEADSAVHVNRDVHSMFNNDSIDDFHTANITSTGQILKLPDSSDEDTGSEAVPSREQTDLTGEGHGGADDEQDESTIQRQSRKRKISLLLQQQYGSSSSMVPSPIVPNKMRKQLAHEEHINNDGDNDDENSNNIESSPLKQGHHHPKGQADDNNEGPDEEESTKEVPKPGTIIHFSTNR
notes: Ask1 subunit of the S. cerevisiae Dam1 complex; Stood in the structure as part of the whole Dam1 complex; also called Ask1^B; source: as subunit of m2
B2: Dam1 subunit of the Dam1 complex (natural protein, S. cerevisiae, UniProt P53267 1-343, looked up)
chain: MSEDKAKLGTTRSATEYRLSIGSAPTSRRSSMGESSSLMKFADQEGLTSSVGEYNENTIQQLLLPKIRELSDSIITLDSNFTRLNFIHESLADLNESLGSLLYGIMSNSWCVEFSQAPHDIQDDLIAIKQLKSLEDEKNNLVMELSNMERGIKRKKDEQGENDLAKASQNKQFNQPLFPSSQVRKYRSYDNRDKRKPSKIGNNLQVENEEDYEDDTSSEASFVLNPTNIGMSKSSQGHVTKTTRLNNNTNSKLRRKSILHTIRNSIASGADLPIENDNVVNLGDLHPNNRISLGSGAARVVNGPVTKNRNSMFSGRAERKPTESRHSVAKKTEKKINTRPPFR
notes: Dam1 subunit of the S. cerevisiae Dam1 complex; Stood in the structure as part of the whole Dam1 complex; also called Dam1^Staple (residues 1-26); Dam1^C-ter; source: as subunit of m2
B3: Spc19 subunit of the Dam1 complex (natural protein, S. cerevisiae, UniProt Q03954 1-165, looked up)
chain: MTDALEQSVLALEGTVSVLKDSVESLKCANEPSTNLASTMLQTKRVFRLVPEYDVERSKLDLIEEVEPLVRTLGDKLRKSMGRMQRELDTLQQTYELNDLRLKKNISMDDDDALNSPDMGQEYEGRDADDVVMMASSTNEELEELKKLKEKKKQLENKLEILKQK
notes: Spc19 subunit of the S. cerevisiae Dam1 complex; Stood in the structure as part of the whole Dam1 complex; source: as subunit of m2
B4: Spc34 subunit of the Dam1 complex (natural protein, S. cerevisiae, UniProt P36131 1-295, looked up)
chain: MGESLDRCIDDINRAVDSMSTLYFKPPGIFHNAILQGASNKASIRKDITRLIKDCNHDEAYLLFKVNPEKQSVSRRDGKEGVFDYVIKRDTDMKRNRRLGRPGEKPIIHVPKEVYLNKDRLDLNNKRRRTATTSGGGLNGFIFDTDLIGSSVISNSSSGTFKALSAVFKDDPQIQRLLYALENGSVLMEEESNNQRRKTIFVEDFPTDLILKVMAEVTDLWPLTEFKQDYDQLYHNYEQLSSKLRFIKKEVLLQDDRLKTMSQYHPSSSHDVAKIIRKEKDEIRRLEMEIANLQE
notes: Spc34 subunit of the S. cerevisiae Dam1 complex; Stood in the structure as part of the whole Dam1 complex; source: as subunit of m2
B5: Dad4 subunit of the Dam1 complex (natural protein, S. cerevisiae, UniProt P69851 1-72, looked up)
chain: MENPHEQVQANILSRIIGNVKRLNESVAILNQELVTINNRNKNLEIMGAICDNYHSSVQFNLEATNNKKPPL
notes: Dad4 subunit of the S. cerevisiae Dam1 complex; Stood in the structure as part of the whole Dam1 complex; also called Dad4^B; source: as subunit of m2
B6: Dad1 subunit of the Dam1 complex (natural protein, S. cerevisiae, UniProt Q12248 1-94, looked up)
chain: MMASTSNDEEKLISTTDKYFIEQRNIVLQEINETMNSILNGLNGLNISLESSIAVGREFQSVSDLWKTLYDGLESLSDEAPIDEQPTLSQSKTK
notes: Dad1 subunit of the S. cerevisiae Dam1 complex; Stood in the structure as part of the whole Dam1 complex; also called Dad1^A; source: as subunit of m2

Key:
Assay in all cases: cryo-EM structure; complexes assembled on cryo-EM grids by step-wise addition of taxol-stabilized microtubule filaments, Ndc80c and Dam1c; sub-boxing, signal subtraction and symmetry expansion for the separate reconstructions
Conditions in all cases: both partners purified
[1] = target: B2
[2] = target: T1, Ndc80 subunit of the Ndc80 complex (S. cerevisiae, UniProt P40460 1-691)
T1 construct: Ndc80 subunit of the budding yeast Ndc80 complex; Stood in the structure as part of the Ndc80 complex; also called Ndc80^CH; Ndc80^CC; source: as subunit of m1

[3] = target: T2, Nuf2 subunit of the Ndc80 complex (S. cerevisiae, UniProt P33895 1-451)
T2 construct: Nuf2 subunit of the budding yeast Ndc80 complex; Stood in the structure as part of the Ndc80 complex; also called Nuf2^CH; Nuf2^CC; source: as subunit of m1

[4] = target: B4
[5] = target: T3, Ndc80 complex (Ndc80, Nuf2, Spc24, Spc25), budding yeast (S. cerevisiae, UniProt P40460 1-691; P33895 1-451; Q04477 1-213; P40014 1-221)
T3 construct: Ndc80 subunit of the budding yeast Ndc80 complex; Nuf2 subunit of the budding yeast Ndc80 complex; Spc24 subunit of the budding yeast Ndc80 complex; Spc25 subunit of the budding yeast Ndc80 complex; Complex used for cryo-EM; Spc24-Spc25 gave no cryo-EM density; copies: + + +
T3 sequence (P40460 whole entry, chain 1 of 4): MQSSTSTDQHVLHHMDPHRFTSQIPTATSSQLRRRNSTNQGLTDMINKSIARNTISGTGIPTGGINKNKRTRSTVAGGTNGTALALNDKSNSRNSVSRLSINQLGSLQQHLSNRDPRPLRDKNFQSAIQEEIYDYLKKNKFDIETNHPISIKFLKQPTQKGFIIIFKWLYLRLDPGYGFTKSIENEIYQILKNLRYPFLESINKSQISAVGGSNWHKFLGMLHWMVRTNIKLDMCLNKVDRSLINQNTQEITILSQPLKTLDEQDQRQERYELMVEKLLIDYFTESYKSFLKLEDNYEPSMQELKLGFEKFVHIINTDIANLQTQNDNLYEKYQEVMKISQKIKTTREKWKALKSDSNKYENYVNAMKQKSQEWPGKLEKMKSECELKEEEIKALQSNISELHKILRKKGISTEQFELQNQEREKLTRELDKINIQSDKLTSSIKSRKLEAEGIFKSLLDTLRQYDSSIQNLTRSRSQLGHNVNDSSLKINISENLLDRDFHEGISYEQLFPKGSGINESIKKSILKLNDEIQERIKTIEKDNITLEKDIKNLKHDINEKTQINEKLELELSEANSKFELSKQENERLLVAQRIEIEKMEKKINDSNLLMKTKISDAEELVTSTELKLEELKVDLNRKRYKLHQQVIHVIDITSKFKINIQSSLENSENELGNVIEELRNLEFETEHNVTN
T3 sequence (P33895 whole entry, chain 2 of 4): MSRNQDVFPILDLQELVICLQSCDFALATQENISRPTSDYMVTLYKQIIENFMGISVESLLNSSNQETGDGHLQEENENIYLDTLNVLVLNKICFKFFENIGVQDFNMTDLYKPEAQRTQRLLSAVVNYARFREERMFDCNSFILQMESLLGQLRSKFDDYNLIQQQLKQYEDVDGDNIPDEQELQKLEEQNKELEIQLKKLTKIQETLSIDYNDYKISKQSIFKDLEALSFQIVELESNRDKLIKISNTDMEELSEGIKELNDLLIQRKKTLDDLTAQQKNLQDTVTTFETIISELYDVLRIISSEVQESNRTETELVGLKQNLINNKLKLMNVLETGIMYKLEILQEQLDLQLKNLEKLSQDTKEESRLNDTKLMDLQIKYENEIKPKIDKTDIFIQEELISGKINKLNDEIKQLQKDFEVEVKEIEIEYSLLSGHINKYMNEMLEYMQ
T3 sequence (Q04477 whole entry, chain 3 of 4): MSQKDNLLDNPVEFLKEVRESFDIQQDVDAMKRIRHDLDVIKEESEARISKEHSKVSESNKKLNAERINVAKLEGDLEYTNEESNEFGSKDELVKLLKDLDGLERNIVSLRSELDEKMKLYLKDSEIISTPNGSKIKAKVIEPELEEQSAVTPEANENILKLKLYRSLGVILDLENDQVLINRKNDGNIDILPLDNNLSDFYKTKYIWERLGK
T3 sequence (P40014 whole entry, chain 4 of 4): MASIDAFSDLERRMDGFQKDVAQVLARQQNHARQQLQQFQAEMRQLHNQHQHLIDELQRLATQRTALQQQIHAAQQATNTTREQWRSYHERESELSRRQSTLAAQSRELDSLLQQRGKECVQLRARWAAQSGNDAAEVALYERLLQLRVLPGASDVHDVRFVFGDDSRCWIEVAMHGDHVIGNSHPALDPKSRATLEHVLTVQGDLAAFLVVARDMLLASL

T1 sequence (P40460 whole entry, one chain of several): as the sequence (P40460 whole entry, chain 1 of 4) above
T2 sequence (P33895 whole entry, one chain of several): as the sequence (P33895 whole entry, chain 2 of 4) above

binding result [1]	binding result [2]	Binder	other results
binds		B1	
	binds	B2	binding result [3]: binds
	binds	B3	binding result [4]: binds
		B4	binding result [5]: binds
binds		B5	
binds		B6	
